In patent US7993849B2:

Experiments:
human MMP-1 (human) = human MMP-1 (human) (UniProt P03956)
rat MMP-13 (rat) = rat MMP-13 (rat) (UniProt P23097)

rat TIMP-1, sequence (P30120 24-217 limits assumed): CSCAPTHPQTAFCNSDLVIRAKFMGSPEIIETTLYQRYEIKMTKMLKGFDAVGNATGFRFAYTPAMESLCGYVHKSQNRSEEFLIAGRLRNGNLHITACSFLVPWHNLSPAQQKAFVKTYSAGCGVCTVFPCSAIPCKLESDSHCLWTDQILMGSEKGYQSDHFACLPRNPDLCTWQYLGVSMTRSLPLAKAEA

Substance | MMP-1 activity on fluorogenic peptide substrate (% MMP-1 activity) (human MMP-1 (human)) | MMP-13 activity on fluorogenic peptide substrate (% MMP-13 activity) (rat MMP-13 (rat))
human TIMP-1 | 27 | 
rat TIMP-1 |  | 20
